Tests used:
[1] = molecular target: T1, C0C2, cMyBP-C spanning domains C0 to C2 (UniProt Q14896 1-452); assay: MST; Monolith NT.115; 100 nmol/l Alexa647-labelled protein fixed, partner titrated; 20 mmol/l Mops pH 7, 1 mmol/l MgCl2, 50 mmol/l KCl, 1 mmol/l DTT, 0.05% Tween-20; settings: both partners purified
T1 construct: also called N-terminal domains (NTD) of cMyBP-C; C0-P/A-C1-m-C2; source: E. coli BL21(DE3)-RIPL, purified (HisTrapFF, TEV, ion exchange); not shown: His tag, N-terminal, cleaved
T1 sequence (Q14896 1-452): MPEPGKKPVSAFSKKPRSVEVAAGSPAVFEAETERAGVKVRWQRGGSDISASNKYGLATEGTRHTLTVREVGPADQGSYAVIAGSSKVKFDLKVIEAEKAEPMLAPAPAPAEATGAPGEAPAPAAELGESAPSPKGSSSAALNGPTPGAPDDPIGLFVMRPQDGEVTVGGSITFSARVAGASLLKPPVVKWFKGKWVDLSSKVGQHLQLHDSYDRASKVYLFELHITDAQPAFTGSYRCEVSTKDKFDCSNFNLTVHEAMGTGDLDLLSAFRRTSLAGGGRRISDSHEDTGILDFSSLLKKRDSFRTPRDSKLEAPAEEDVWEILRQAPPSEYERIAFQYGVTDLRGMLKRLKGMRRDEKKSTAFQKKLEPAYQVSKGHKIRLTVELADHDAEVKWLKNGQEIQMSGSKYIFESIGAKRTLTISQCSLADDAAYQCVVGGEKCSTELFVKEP

[2] = molecular target: T2, C0C2-3P, tris-phosphorylated C0C2 (UniProt Q14896 1-452, tris-phosphorylated by PKA (m-motif; sites not given)); assay: as above; settings: both partners purified
T2 construct: not shown: His tag, N-terminal, cleaved
T2 sequence (Q14896 1-452): as above

B1: phospho-miniHMM (miniHMM phosphorylated in vitro by cMLCK) (complex)
chain 1: RDSLLVIQWNIRAFMGVKNWPWMKLYFKIKPLLKSAEREKEMASMKEEFTRLKEALEKSEARRKELEEKMVSLLQEKNDLQLQVQAEQDNLADAEERCDQLIKNKIQLEAKVKEMNERLEDEEEMNAELTAKKRKLEDECSELKRDIDDLELTLAK
chain 2: APKKAKKRAGGANSNVFSMFEQTQIQEFKEAFTIMDQNRDGFIDKNDLRDTFAALGRVNVKNEEIDEMIKEAPGPINFTVFLTMFGEKLKGADPEETILNAFKVFDPEGKGVLKADYVREMLTTQAERFSKEEVDQMFAAFPPDVTGNLDYKNLVHIITHGEEKD
modifications: phosphorylated by cMLCK to about 1 mol Pi/mol RLC (site not given)
Binder B1 has a Kd [1] of 2.7 µM and a Kd [2] of 5 µM.
